Measured values taken from patent publication US20250361320A1.

Target: human CEACAM5 on cells (MKN45, BxPC-3, Ls174T, HCT116-huCEACAM5) (human) (UniProt P06731)
Test: flow cytometry on BxPC-3 cells (medium, 60,000 receptors/cell)

Chain of human CEACAM5 on cells (MKN45, BxPC-3, Ls174T, HCT116-huCEACAM5) (human) (P06731 35-685 T210S limits assumed): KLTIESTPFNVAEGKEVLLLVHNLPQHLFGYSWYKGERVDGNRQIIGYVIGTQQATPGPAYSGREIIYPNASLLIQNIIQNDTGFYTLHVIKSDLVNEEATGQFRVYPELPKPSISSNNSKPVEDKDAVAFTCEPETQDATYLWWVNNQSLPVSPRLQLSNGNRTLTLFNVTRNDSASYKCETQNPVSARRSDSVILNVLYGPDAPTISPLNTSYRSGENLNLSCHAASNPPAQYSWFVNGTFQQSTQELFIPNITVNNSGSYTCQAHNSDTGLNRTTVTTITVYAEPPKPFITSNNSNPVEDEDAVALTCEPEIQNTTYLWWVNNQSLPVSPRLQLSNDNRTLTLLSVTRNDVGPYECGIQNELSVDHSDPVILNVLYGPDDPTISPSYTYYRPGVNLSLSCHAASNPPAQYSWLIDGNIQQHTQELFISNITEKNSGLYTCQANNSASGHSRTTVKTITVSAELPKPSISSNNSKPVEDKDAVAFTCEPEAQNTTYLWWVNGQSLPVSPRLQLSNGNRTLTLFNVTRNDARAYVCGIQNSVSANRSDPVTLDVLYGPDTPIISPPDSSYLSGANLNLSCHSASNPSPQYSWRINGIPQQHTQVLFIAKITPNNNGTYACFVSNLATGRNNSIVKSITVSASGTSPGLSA

mAb Control 3 (antibody)
EC50 (read off the curve): 8 nM
